These results are taken from US20260139049A1 (PEDIATRIC IMMUNITY AND HEALTHCARE GUANGZHOU BIOTECHNOLOGY, published 2026).

In test [1] the target is T1, human CLDN6 (human, UniProt P56747 1-220).
T1 construct: whole, on cells; four-transmembrane protein; also called claudin-6; HEK293T-CLDN6
T1 sequence (looked up): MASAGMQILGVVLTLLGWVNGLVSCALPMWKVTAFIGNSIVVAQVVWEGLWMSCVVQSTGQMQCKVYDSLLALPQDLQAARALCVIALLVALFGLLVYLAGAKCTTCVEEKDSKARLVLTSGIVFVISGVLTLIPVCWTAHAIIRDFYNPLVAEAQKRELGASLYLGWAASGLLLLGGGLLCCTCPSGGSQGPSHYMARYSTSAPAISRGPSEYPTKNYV
Put plainly: FACS on 293T-CLDN6 cells, 10 µg/mL.

Test [2] addresses T1, human CLDN6. Put plainly: FACS on HEK293T-CLDN6 cells. As to the method: (§1) To detect a binding capacity of a chimeric or humanized antibody to CLDN6, a CLDN6-expressing cell line HEK293T-CLDN6 and a CLDN6-negative control cell line HEK293T were washed three times with PBS. 1×10⁵ test cells and 50 μL of an antibody solution to be tested were added to a 96-well plate, and incubated at 4° C. for 1 h. The cells were then washed three times with PBS. […] Finally, cells were washed three times with PBS, and signals were read using FACS.
(§2) An EC50 value (a concentration of an antibody that binds to half of binding sites at equilibrium) is calculated through nonlinear regression.

Test [3] has as its target T1, human CLDN6. Put plainly: FACS on HepG2 tumour cells; target on the cells taken as CLDN6. The procedure:
(§3) 50 μL of an antibody to be tested was added to a 96-well plate, then 1×10⁵ cells were added to each well, and incubation was conducted at 4° C. for 1 h. Cells were washed three times with PBS. […] Finally, cells were washed three times with PBS, and signals were read using FACS. A binding capacity of the antibody to each tumor cell was analyzed based on detection data.

The target in test [4] is T1, human CLDN6. Put plainly: FACS on 293T-CLDN6 cells, 10 µg/mL. This is another data set of the same source.
Test [5] concerns the target T1, human CLDN6. Put plainly: FACS on HEK293T-CLDN6 cells. This is another data set of the same source.
The target of test [6] is T1, human CLDN6. Put plainly: FACS on HEK293T-CLDN6 cells. This is another data set of the same source.
The target in test [7] is T1, human CLDN6. Put plainly: ratio of FACS Geom.Mean on 293T-CLDN6 over 293T-CLDN9, 10 µg/mL. The procedure: (§4) 50 μL of an antibody to be tested was added to a 96-well plate, then 1× 10⁵ cells were added to each well, and incubation was conducted at 4° C. for 1 h. Cells were washed three times with PBS. […] Finally, cells were washed three times with PBS, and signals were read using FACS. Binding capacities of the antibody to CLDN9, CLDN3, and CLDN4 were analyzed separately based on detection data.

For test [8], the target named is T1, human CLDN6. Put plainly: FACS on HEK293T-CLDN6 cells. The procedure: as §1, §2
The source holds these as a separate data set.

Another test has as its target T2, human CLDN9 (human, UniProt O95484 1-217).
T2 construct: whole, on cells; also called HEK293T-CLDN9
T2 sequence (looked up): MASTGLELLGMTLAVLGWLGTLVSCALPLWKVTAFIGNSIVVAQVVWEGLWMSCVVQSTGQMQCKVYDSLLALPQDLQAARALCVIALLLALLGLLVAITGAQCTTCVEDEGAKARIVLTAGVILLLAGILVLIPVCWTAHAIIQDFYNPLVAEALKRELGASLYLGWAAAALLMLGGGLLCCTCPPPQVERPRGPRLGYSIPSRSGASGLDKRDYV
Put plainly: FACS on 293T-CLDN9 cells, 10 µg/mL. The procedure: as §4

Test [9] deals with T1, human CLDN6. Put plainly: FACS on HepG2 tumour cells, 5 µg/mL; target on the cells taken as CLDN6. The procedure: as §3

B1: IMAB027 (antibody, human IgG1, kappa, V domains shown)
VH: EVQLQQSGPELVKPGASMKISCKASGYSFTGYTMNWVKQSHGKNLEWIGLINPYNGGTIYNQKFKGKATLTVDKSSSTAYMELLSLTSEDSAVYYCARDYGFVLDYWGQGTTLTVSS
VL: IVLTQSPAIMSASPGEKVTITCSASSSVSYLHWFQQKPGTSPKLWVYSTSNLPSGVPARFGGSGSGTSYSLTISRMEAEDAATYYCQQRSIYPPWTFGGGTKLEIKR
notes: variable regions of mAb206-LCC on human IgG1 constant regions; also called benchmark antibody; control antibody
As to B1, the Geom.Mean in the test with human CLDN6 [1] was 23600; with human CLDN6 [4], 44300; in the test with human CLDN9, 985; with human CLDN6 [9], 970. Besides, the EC50 (commonly the concentration giving half of the maximal effect) with human CLDN6 [2] stood at 0.213 µg/mL; in the test with human CLDN6 [3] it was 0.515 µg/mL; with human CLDN6 [5] it was 0.0727 µg/mL; in the test with human CLDN6 [6] it was 0.0469 µg/mL; with human CLDN6 [8], 0.282 µg/mL. In the test with human CLDN6 [7], the CLDN6/CLDN9 ratio amounted to 45.
